Target: T1, H-NS (Escherichia coli, UniProt P0ACF8 1-137)
T1 sequence: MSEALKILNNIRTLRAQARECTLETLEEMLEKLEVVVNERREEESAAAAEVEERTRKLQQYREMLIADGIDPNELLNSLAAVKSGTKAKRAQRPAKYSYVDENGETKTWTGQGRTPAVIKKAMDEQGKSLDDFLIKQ
Assay: EMSA; 0-80 ng/uL protein; 10 mM Mg2+; EMSA: 10 mM Tris-HCl pH 7.9, 125 mM KCl, 10 mM MgCl2, 0.1 mM DTT, 2.5% glycerol, 30 min, room temperature; bridging: 20 mM Tris-HCl pH 7.4, 150 mM NaCl, 1 mM DTT, 5% glycerol, 0.05% Tween 20, room temperature
Conditions: protein: recombinant; tags: His6 (N-terminal); chain copies: 2; blunt

B1: HBS dsDNA probe (P21/P22) (dsDNA)
DNA 1: TAATTATTATAACTAAAAGTTTCTTTAATAATAAAACGAATAACTTGCAGATTTGAAAT
DNA 2: ATTTCAAATCTGCAAGTTATTCGTTTTATTATTAAAGAAACTTTTAGTTATAATAATTA
B1: binds.

Reference: paper PMC12455589, “Abundant bacterial nucleoid-associated protein H-NS limits plasmid transfer through mechanical modification of DNA”
